In publication PMC10498669:

Target: AAV8 VP3 of the VP3-only capsid (VLP-0) (adeno-associated virus serotype 8)
Experiment: native MS; high-resolution ensemble native MS of purified capsids; 75 mM ammonium acetate pH 7.5; Orbitrap Q Exactive UHMR, xenon collision gas, positive ion mode; spectra compared with simulations of stochastic assembly

For “AAV8 VP3 of the VP3-only capsid (VLP-0) (natural protein)”, the stoichiometry N was 60.
